Assay [1] concerns the target T1, biotinylated human CD47 (IgSF domain, residues 1-117, C15G) (human, UniProt Q08722 19-135, biotinylated in vitro with BirA ligase on the biotin acceptor peptide tag).
T1 construct: range 1-117; Captured on a Biacore SA chip; also called biotinylated CD47
The experiment in a line: SPR (Biacore T100), biotinylated CD47 on SA chip, 1:1 Langmuir model. Background: SPR reads the build-up and loss of mass on a sensor chip optically.

Assay [2] deals with T2, CD47 on the surface of GFP-luciferase+ DLD1-Tg cells (UniProt Q08722 19-323, limits assumed).
T2 construct: whole, on cells; also called CD47+ cells; CD47+ PD-L1+ cells
Kind of assay: flow cytometry competition on DLD1-Tg(GFP-Luc) cells (CD47+), competitor 50 nM biotinylated SIRP-alpha tetramer. For orientation: A flow cytometer gives signals particle by particle.

A further assay has as its target T3, human PD-L1 (human, UniProt Q9NZQ7 19-239, limits assumed, biotinylated in Examples 4 and 5).
T3 construct: also called biotinylated human PD-L1
Kind of assay: SPR, HGV3 held on chip-captured biotinylated human CD47, then PD-L1 injected; the PD-L1 concentration is not shown.

Assay [3] concerns the target T2, CD47 on the surface of GFP-luciferase+ ….
Assay [4] concerns the target T4, CD47 on total splenic cells.
T4 construct: also called % occupied CD47
T4 sequence (Q61735 whole entry, species assumed, looked up): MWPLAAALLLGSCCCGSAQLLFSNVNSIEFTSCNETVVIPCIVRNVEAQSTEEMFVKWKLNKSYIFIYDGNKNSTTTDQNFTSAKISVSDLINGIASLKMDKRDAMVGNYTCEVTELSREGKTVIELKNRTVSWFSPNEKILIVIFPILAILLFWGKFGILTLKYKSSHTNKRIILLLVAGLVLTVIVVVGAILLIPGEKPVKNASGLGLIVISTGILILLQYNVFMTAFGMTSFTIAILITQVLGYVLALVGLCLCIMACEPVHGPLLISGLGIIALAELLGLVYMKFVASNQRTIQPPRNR
Kind of assay: in vivo receptor occupancy: NSG mice injected with GV3 on three consecutive days, spleen cells harvested 1 hr and 24 hrs after the last injection, free CD47 read by SIRPA-tetramer binding (FACS).

Assay [5] concerns the target T5, CD47 on mouse splenocytes (mouse, UniProt Q61735).
T5 construct: cell surface, full length; also called % occupied CD47
T5 sequence (receptor on cells, looked up): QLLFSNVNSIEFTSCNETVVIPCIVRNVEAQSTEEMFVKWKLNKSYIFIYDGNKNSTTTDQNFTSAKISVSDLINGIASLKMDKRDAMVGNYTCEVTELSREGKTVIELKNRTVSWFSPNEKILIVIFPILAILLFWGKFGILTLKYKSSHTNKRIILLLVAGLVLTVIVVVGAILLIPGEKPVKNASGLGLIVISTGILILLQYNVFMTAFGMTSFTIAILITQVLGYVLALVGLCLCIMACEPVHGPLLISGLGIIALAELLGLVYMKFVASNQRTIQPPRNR
Kind of assay: in vivo receptor occupancy: NSG mice injected with GV3 on three consecutive days, spleen cells harvested 1 hr and 24 hrs after the last injection, free CD47 read by SIRPA-tetramer binding (FACS) on mouse splenocytes.

In assay [6] the target is T6, CD47 on human cells (CD47+, PDL1+).
T6 construct: These cells also carry human PD-L1; also called HL60-Tg(hPDL1, GFP) cells isolated from the spleen; human CD47+ PDL1+ cells
Kind of assay: in vivo receptor occupancy: NSG mice injected with GV3 on three consecutive days, spleen cells harvested 1 hr and 24 hrs after the last injection, free CD47 read by SIRPA-tetramer binding (FACS) on human HL60-Tg(hPDL1, GFP) cells.

One may read the Kd as the free concentration of one partner at which half of the binding sites on the other are occupied at equilibrium, for simple one-to-one binding. Low readings indicate tighter binding, high ones weaker binding.

Read-outs that look alike come from different tables or passages of the source.

T2 sequence (Q08722 19-323 limits assumed): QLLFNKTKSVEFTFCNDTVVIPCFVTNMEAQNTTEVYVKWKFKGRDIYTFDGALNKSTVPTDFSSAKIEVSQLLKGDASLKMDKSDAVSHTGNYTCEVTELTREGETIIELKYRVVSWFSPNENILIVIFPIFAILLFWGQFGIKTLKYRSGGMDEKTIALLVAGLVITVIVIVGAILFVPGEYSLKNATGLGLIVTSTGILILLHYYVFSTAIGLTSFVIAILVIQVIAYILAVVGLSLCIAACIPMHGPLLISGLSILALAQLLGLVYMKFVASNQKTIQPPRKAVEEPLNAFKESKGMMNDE
T1 sequence (Q08722 other isoform, or with tags, fused parts or gaps C15G C15G limits assumed): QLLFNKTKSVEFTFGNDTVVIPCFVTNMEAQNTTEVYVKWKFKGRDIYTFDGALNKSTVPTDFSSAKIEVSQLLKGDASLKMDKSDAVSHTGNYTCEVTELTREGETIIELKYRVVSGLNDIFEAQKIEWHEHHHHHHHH
T6 sequence (chain, as listed by the source limits assumed): as the sequence (Q08722 19-323 limits assumed) above
T3 sequence (Q9NZQ7 19-239 limits assumed): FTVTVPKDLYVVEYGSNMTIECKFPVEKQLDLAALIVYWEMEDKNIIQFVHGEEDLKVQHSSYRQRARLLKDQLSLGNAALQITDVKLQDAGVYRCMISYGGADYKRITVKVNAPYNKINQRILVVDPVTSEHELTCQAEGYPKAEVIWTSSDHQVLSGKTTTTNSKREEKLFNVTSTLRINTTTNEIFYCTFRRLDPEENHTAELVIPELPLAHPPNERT

B1: SIRP-gamma variant GV3 (designed binder)
chain: EEELQIIQPEKLLLVTVGKTATLHCTITSLFPVGPIQWFRGVGPGRVLIYNQKDGHFPRVTTVSDGTKRNNMDFSIRISSITPADVGTYYCVKFRKGSPEDVEFKSGPGTEMALGAKPSHHHHHHHH
notes: Monomers were made as MBP fusions in E. coli and MBP was removed with 3C protease; also called HGV3; human GV3
Consider B1, for which, in assay [1], the affinity, expressed as Kd, was 0.092 nM. In addition, the “dissociation half-life T1/2” value in assay [1] was roughly 0.733 h. The “IC50 (read off the curve)” value in assay [2] was roughly 0.7 nM; in assay [3], roughly 1 nM. Besides, the binding result in the assay with human PD-L1 was “no binding”. Also, the RO half-life was roughly 10 h in assay [4], roughly 5 h in assay [5] and roughly 30 h in assay [6].
